Each block holds one molecule with its values, some of them ahead of it.
Key:
Fas-Fc = target: T1, Fas-Fc (Mus musculus, UniProt P25446); assay: ELISA of Fas-Fc binding to coated synthetic polypeptides; settings: peptides coated at 1 μg/ml, increasing Fas-Fc, OD 450 nm
T1 construct: purchased R&D
T1 sequence (P25446 22-169 limits assumed): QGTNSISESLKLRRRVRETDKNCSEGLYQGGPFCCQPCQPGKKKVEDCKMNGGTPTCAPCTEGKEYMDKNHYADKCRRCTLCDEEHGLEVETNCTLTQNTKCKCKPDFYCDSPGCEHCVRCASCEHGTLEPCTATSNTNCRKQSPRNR
Excerpt: The Met alpha but not beta chain binds to Fas (FIG. 1a). Various regions of the mouse Met cDNA corresponding to the alpha chain or the extra-cellular portion of the Met beta chain were cloned into expression vectors (pCRT7 TOPO/AlphaMet or pCRT7 TOPO/beta chain) and subjected to in vitro transcription/translation by a rabbit reticolucyte lysate translation system. Empty vector was included in each experiment as a control. The expressed proteins were labeled with ^35S-Methionine. Pull down assays were performed using Fas-Fc, a chimeric molecule which lacks the interacellular cytoplasmic domain and protein-A agarose as described in Wang et al., 2002. FIG. 1b is a schematic presentation of the Met alpha chain and its mutant version used to map the region interacting with Fas. The C-terminus of each construct contains a hexa-Histidine tag for ease of detection. Start cordon ATG was added to the N-terminally truncated constructs. The YLGA (SEQ ID NO:1) motif mutation was prepared by PCR, in which YLGA (SEQ ID NO:1) was replaced by DHER (SEQ ID NO:24). […] In vitro translated ^35S-methionine labeled truncated/mutated AlphaMet proteins were pulled down with 2 μg of Fas-Fc or the same amount of IgG. Lane 1: 10% of AlphaMet input; Lane 2: AlphaMet with IgG control; Lanes 3 to 8: pull down of various truncated AlphaMet proteins; N-terminal 1-106 residues; C-terminal truncated, residues 1-210; alpha chain, residues 1-306; alpha chain with transmembrane domain, 1-338; N-terminally truncated alpha chain, residues 100-306; and N-terminally truncated with addition of the transmembrane domain 100-338, respectively. FIG. 1d depicts the amino acid sequence alignment of alpha chain with FasL, determined using the CLUSTALW, SIM+LALNVIEW, and ALIGN at ExPASy Proteomic Tools (available on the internet at us.expresly.org/tools). The numbers indicate the amino acid residues of the indicated protein. […] Recombinant His-tagged AlphaMet or its mutant version were expressed in E. coli, purified with chromatography, and subjected to Fas-Fc (lanes labeled Fas) or control IgG pull down experiments, and detected by Western blot using anti-His antibody that recognizes C-terminal His. This antibody also recognizes the Fas-Fc which is also tagged at the C-terminus by His. […] Purified recombinant AlphaMet protein (approximately 10 μg) was mixed with Hepa 1-6 cells or Jurkat cell lysates and subjected to immunoprecicitation using anti-Fas antibody or control IgG followed by Western blot using anti His-tag antibody as a probe. […] Peptides (1 μg/ml) were coated into the 96-well microtiter plates in triplicate and after blocking with 1% BSA, increasing amounts of Fas-Fc were added as indicated. The control peptide was a scrambled 13 mer. After washing the wells, anti-human […]-HRP conjugates (1:20,000) were added to detect the bound Fas-Fc using TMD dye and the OD value was determined at a wavelength of 450 nm. One-way ANOVA was carried out for determination of statistical significance.
ELISA. Synthesized polypeptides (Genemed Synthesis, Inc. South San Francisco, Calif.) were dissolved in water and diluted in the coating buffer (0.05M of Sodium Carbonate, 0.02% of Sodium Azide, pH 9.6) to a final concentration of 1 ug/ml. One hundred microliter aliquots were added to coat each well of a 96-well microtitre plate. The coated plates were then washed with PBS-Tween (0.5%) three times. The plates were blotted and dried by tapping upside down on tissue paper. They were blocked using 200 μl of 1% of BSA in PBS solution followed by a 2 hour incubation. Plates were washed another three times, Fas-Fc was added, and the plates were incubated for another 2 hours. The plates were washed three times and anti-human IgM Fc HRP conjugates were included at a final concentration of 1:20,000, and incubated for 1 hour. Plates were washed three times again and ready-to-use TMD was added and incubated for 30 minutes. The color reaction was stopped by 2M of Sulfuric Acid. […]

[1] = target: endogenous Fas of Jurkat cells (human) (UniProt P25445); assay: cell-based or functional assay
Jurkat cells = assay: Fas-ligand induced apoptosis in Jurkat cells (Trypan Blue, flow cytometry); format: cell-based, human
Description: (§1) For FIG. 4a, Jurkat cells (1.5×10^5) were overnight treated in triplicate with 5 ng/ml of crosslinked human Fas ligand with or without 5 μg/ml of recombinant AlphaMet or 1 μg/ml of the indicated polypeptides. Percent apoptosis was determined by Trypan Blue staining using a hemocytometer. The data are representative and were repeated at least four times. […] The 17 kDa fragment of cleaved Caspase 3 is visualized by this antibody. The blot was reprobed for β-actin as a loading control. For FIG. 4c, serum deprived Hepa 1-6 cells (3×10^5) were overnight treated with 1 μg/ml of crosslinked mouse Fas ligand with or without AlphaMet or the indicated polypeptide. Media were collected and centrifuged to pellet the dead cells. […] The data in FIG. 4c represents three independent experiments.
Apoptosis assay. Pre-washed Jurkat cells in RPMI 1640 medium containing 1% FBS were inoculated in 96-wells at a density of 10^5 cells per well. Apoptosis was induced by cross-linked human Fas-ligand (R&D Systems) at a concentration of 0.5 ng/ml or Anti-Fas (human, activating) clone CH11 (Upstate biotechnology) at a concentration of 500 ng /ml. Hepa 1-6 cells were overnight starved before induction of apoptosis. The apoptosis in Hepa 1-6 was induced by anti-mouse Fas antibody Jo2 (200 ng/ml) or human recombinant Fas-ligand. The extent of cell viability and apoptosis was determined by several methods such as Trypan Blue stain, flow cytometry, LDH assay, and Hoechst staining.

[2] = tested on: caspase-3 activation in Hepa 1-6 cells; assay: Cleaved Caspase 3 in apoptotic Hepa 1-6 cell lysates; format: cell-based, mouse
Description: as §1

Sequence of endogenous Fas of Jurkat cells (human) (P25445 26-335): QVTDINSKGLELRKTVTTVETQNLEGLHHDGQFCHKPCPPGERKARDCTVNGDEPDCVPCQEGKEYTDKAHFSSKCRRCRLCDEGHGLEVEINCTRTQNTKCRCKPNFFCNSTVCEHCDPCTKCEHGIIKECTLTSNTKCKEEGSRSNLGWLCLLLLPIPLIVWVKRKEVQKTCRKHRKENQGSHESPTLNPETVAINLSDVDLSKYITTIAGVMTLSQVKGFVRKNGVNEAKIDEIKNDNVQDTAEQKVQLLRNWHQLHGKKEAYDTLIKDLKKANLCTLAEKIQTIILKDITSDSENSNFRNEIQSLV

Fas binding by ELISA (Fas-Fc): bound Fas strongly
Molecule: HHIYLGATNYIY [12 mer]

Molecule: YLGA [YLGA 4 mer]
Fas binding by ELISA (Fas-Fc): lower compared to the YLGA 12 mer

sub-G1 population of Jurkat cells treated with Fas-ligand (Propidium Iodide, flow cytometry) [1]: 8%
B1: alpha subunit of Met (AlphaMet), amino acid residues 1 to 306, His-tagged (receptor, mouse)
chain: MKAPTVLAPGILVLLLSLVQRSHGECKEALVKSEMNVNMKYQLPNFTAETPIQNVVLHGHHIYLGATNYIYVLNDKDLQKVSEFKTGPVLEHPDCLPCRDCSSKANSSGGVWKDNINMALLVDTYYDDQLISCGSVNRGTCQRHVLPPDNSADIQSEVHCMFSPEEESGQCPDCVVSALGAKVLLSEKDRFINFFVGNTINSSYPPGYSLHSISVRRLKETQDGFKFLTDQSYIDVLPEFLDSYPIKYIHAFESNHFIYFLTVQKETLDAQTFHTRIIRFCSVDSGLHSYMEMPLECILTEKRRKRHHHHHH
death rate of Jurkat cells treated with Fas-ligand (Trypan Blue) [1]: 12% | death rate (Jurkat cells; Fas-ligand overnight, AlphaMet 5 μg/ml, Trypan Blue): 12% | sub-G1 (apoptotic) population (Jurkat cells; Propidium Iodide flow cytometry, Fas-ligand): 8% | Activation of caspase-3 [2]: also inhibited by the wild type

— US20070184522A1, “Cell death modulation via antagonists of Fasl and Fas activation” (University of Pittsburgh of the Commonwealth System of …, priority 2004, published 2007)
